{
  "source": "patent US12129222B2",
  "about": "“Production of bitter principle derivatives” (Julius-Maximilians-Universitaet Wuerzburg, priority 2016, dated 2024)",
  "target": "MMP-8 (Homo sapiens, UniProt P22894)",
  "sequence (P22894 101-467, species assumed)": "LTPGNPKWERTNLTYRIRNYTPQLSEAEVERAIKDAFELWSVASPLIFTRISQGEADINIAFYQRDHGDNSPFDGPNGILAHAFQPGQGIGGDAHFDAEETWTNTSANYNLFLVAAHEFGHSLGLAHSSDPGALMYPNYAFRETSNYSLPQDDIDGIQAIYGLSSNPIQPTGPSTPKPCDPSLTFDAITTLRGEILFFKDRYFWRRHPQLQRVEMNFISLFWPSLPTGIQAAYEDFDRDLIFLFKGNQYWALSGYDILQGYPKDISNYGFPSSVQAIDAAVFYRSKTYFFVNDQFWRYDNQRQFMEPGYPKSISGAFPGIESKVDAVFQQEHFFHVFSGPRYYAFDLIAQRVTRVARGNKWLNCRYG",
  "experiment": "Enzymatic peptide cleavage by matrix metalloproteinases",
  "type": "biochemical",
  "details": "after cleavage from the resin; activated MMP, 1 h at 37° C., pH 7.0; LC-MS",
  "method": "(§1) For that, a 2-3 hour activation of the pre-MMP by p-aminophenyl mercury acetate (APMA 10 mM in 0.1 M NaOH) in a ratio of 10:1 (MMP:APMA v/v) takes place at 37° C. Subsequently, the activated MMP is added to the peptides dissolved in buffer (200 mM NaCl, 50 mM Tris-HCl, 5 mM CaCl2, 1 μM ZnCl2, 0.05% BRIJ® 35, 0.05% NaN3, pH 7.0) in defined concentrations (9 ng/ml, 45 ng/ml, 90 ng/ml, 225 ng/ml, 450 ng/ml, and 900 ng/ml) and incubated for 1 h at 37° C. The reaction is stopped by separation/filtration of the MMP by centrifugation or addition of 10 equivalents of EDTA (250 mM). The cleavage products are analyzed by liquid chromatography with masse spectrometry coupling (LC-MS).\nas §1, with “concentrations” for “concentrations (9 ng/ml, 45 ng/ml, 90 ng/ml, 225 ng/ml, 450 ng/ml, and 900 ng/ml)”, “mass” for “masse”",
  "note": "Non-standard residues stand in square brackets, D forms with d.",
  "data": [
    {"substance": "NH2-G-p-q-G-I-A-G-q-Q—COOH: peptide modified by replacing L by D amino acids (small letters mean D-amino acids) (H-G[dP][dQ]GIAG[dQ]Q-OH; SMILES CC[C@H](C)[C@H](NC(=O)CNC(=O)[C@@H](CCC(N)=O)NC(=O)[C@H]1CCCN1C(=O)CN)C(=O)N[C@@H](C)C(=O)NCC(=O)N[C@H](CCC(N)=O)C(=O)N[C@@H](CCC(N)=O)C(=O)O)", "values": [
      {"measurement": "cleavage by matrix metalloproteinases (MMP) such as MMP-8", "value": "specifically cleaved"}
    ]}
  ]
}
